What was measured:
[1] = target: T1, SARS-CoV-2 spike (S) protein peptide on HLA-DPA1*01:03 / HLA-DPB1*04:01 (human); test: multimer staining
T1 peptide: TFEYVSQPFLMDLE

[2] = target: T2, SARS-CoV-2 spike (S) protein peptide on HLA-DPA1*01:03 / HLA-DPB1*04:01 (human); test: multimer staining
T2 peptide: TFEYVSQPFLMDLE

[3] = target: T3, SARS-CoV-2 spike (S) protein peptide on HLA-DPA1*01:03 / HLA-DPB1*04:01 (human); test: activation reporter or marker
T3 peptide: CTFEYVSQPFLMDLE

B1: TCR4.1 (TCR)
alpha TRAV35 TRAJ42 CDR3: CAGMNYGGSQGNLIF
beta TRBV4-1 TRBJ1-2 CDR3: CASSQGVGYTF
B1: recognises [1]; recognises [2]; recognises [3].

B2: TCR6.3 (TCR)
alpha TRAV35 TRAJ42 CDR3: CAGMNYGGSQGNLIF
beta TRBV6-3 TRBJ1-2 CDR3: CASSYRGAYGYTF
B2: recognises [1]; recognises [3].
